The DeepSol protein solubility set

Experiment: soluble on expression in E. coli; label from the status in PepcDB or PDB records

Sequence	soluble on expression in E. coli
MSLTQRIDFQTDPSRYRHWRVAYDGEIANLYMDVDEQGGLFPGYELKLNSYDLGVDIELADIVQRMRFEHPEVKVVVMQSGKDRVFCAGANIRMLGGASHAHKVNFCKFTNETRNTYEAAEADSGQKYIAAVKGACAGGGYELALACNYIMLTNDSSSSVALPEVPLLAVLPGTGGLTRVTDKRKVRRDLADVFCSVEEGVRGQRAVDWRLVDEIAPNSKFDEVVQERAREFASASVKPSGLTGIALTPLDRRFAEDGSVTYSTVEVVVEREAGRATLTISGPTDAAPDTVDALQAQGAEAWILRAARELDDAILHLRLNERRIGTLVIQTQGDGAAVAAHEALLLENRDHWLANEILQHWKRVLKRVDMTSRSLVAIVEHGSCFAGPLAELLWAVDRSYMMLEEFEGDNRPLAAITLSPGNFGTYPMGNDLSRLATRFLGTPEAVEAARARIGEALEAEEAEKLGLVTYVLDDIDWEDEVRVFLEERASFSPDAMTGMEANLRFAGPETMETRIFGRLTAWQNWIFQRPNAVGPDGALQRYGTGVRGDYDMERVEGHHHHHH	soluble
SPEWPPCLSVAPALVITMAAGKGAPLSPSAENRWRLSEPELGRGCKPVLLEKTNRLGPEAAVGRAGRDVGSAELALLVAPGKPRPGKPLPPKTRGEQRQSAFTELPRMKDRQVDAQAQEREHDDPTGQPGAPQLTQNIPRGPAGSKVFSVWPSGARSEQRSAFSKPTKRPAERPELTSVFPAGESADALGELSGLLNTTDLACWGRLSTPKLLVGDLWNLQALPQNAPLCSTFLGAPTLWLEHTQAQVPPPSSSSTTSWALLPPTLTSLGLSTQNWCAKCNLSFRLTSDLVFHMRSHHKKEHAGPDPHSQKRREEALACPVCQEHFRERHHLSRHMTSHS	soluble
MAHHHHHHMRSLPNIIVTGVPGVGKTTLCEELVEILNKQLKENQQAESASQMKHLNLSKVIKEERLYEEFDDQLDASIYSSDMVNEKLEKLKLENGGYIIDFHDVDFLDEKELIDHIFLLTASTNKLYERLEKRNYSEEKIKNNIECEIFQVIKEDILTSYNDPSIFDELENNDMEQYESNLQLIKGWVLSWVKNGVAMPR	soluble
SEIESDPNDGHHHHHRRLHLDLSVDERSPRHGISELLQKLRPEWKPDDIQIKVFTEGITNQLMGCYVGSMTRDPVLLVRVYGQMTELFMDREKEMEMFRVLHKHGCGPQLYCSFNNGICYEFVRGVVLDDTLLHQPSVYRLIATEMGKIHSIKSGDSGARSAVTPVLWSRLSQFLNLLQSADDPEQQRSSADGETPSLEIIMREMEELKSHLARINSPVVLCHNDLLTKNVIYNQEEGAVKFIDYEYADFNYQAYDIGNHFNEFAGIDNVDSSLYPSDELQFDWLSAYLESFKRCSTGDSAVTQTEVQELYEQVCQFSLVAHLFWCLWALLQAKHSTIDFDFQRYARARFNYYFEKKREFCGLTPP	soluble
MLSRMRRKHFLSQTEHTFSRQEVSLWKEKQMICFMMNPSRKHIWASREEINMDHVVITIARQYGSGGRTVGKMLAERLGISFYDKQIIHMASDESGIDVNLFGKIEAGDKIKSSLFGNKSSIYKGDLVLPGNKDFISDENLFNYQAKVVNDLAEKESYVIVGRCVNYVFKDRPNTLRVFIHAPWEFRVEQASQKISGSREDVEKFLLKDDKRKQDYYRKFAGGQWSDATNYDLCLNSGKLGFDKCVDAIETQLKIMLGK	not soluble
MGSDKIHHHHHHMIKIAIVGFGTVGQGVAELLIRKREEIEKAIGEFKVTAVADSKSSISGDFSLVEALRMKRETGMLRDDAKAIEVVRSADYDVLIEASVTRVDGGEGVNYIREALKRGKHVVTSNKGPLVAEFHGLMSLAERNGVRLMYEATVGGAMPVVKLAKRYLALCEIESVKGIFNGTCNYILSRMEEERLPYEHILKEAQELGYAEADPSYDVEGIDAALKLVIIANTIGVKASYEDVEVTGITQITPEAFQVAAEKGYTIRLIAEVSREKLKVSPRLVPFHHPLAIKGTMNAAMFKTDTAGSIFVAGRGAGKEETASAILSDLYEIYAGPR	not soluble
MIKMGRSEMKIASAELRELMKAVSEGHYETVNTILDKDPELVNQYAPPTYDSPLARVLNKKHIDYKMLDILVKHHVDFDYPINYHKETPIELACKNQDLQLFKYLVQHNAPISEQAPHFLLVNSTNIKYLTEDKIKNTCEIIKLMGGLEAVSSKCDAEGNRFGEQARKSQLINRFGGIVKYDYMQLLQSVYPIVDREVDAPTIHGSTEVLTNLLNKIRGQFSSKETYDQQNLKDSISLFFMTGGEIPPSRKVPESRFEEAGIDTPKNAL	not soluble
MIGEIPGVAAGQPYNSRRLAHEAGVHRPLQAGICGTKATGAESIVVSGGYKDDEDYGDVIIYTGHGGRDSAGNQVSDQSLDDSGNAALVTSYLRGLPVRVIRGSQSGSPFAPSNGYRYDGLYRVASYTSKLGIDGFLIWQFRMEAYEETPTPKITKVRALFAEPTDCAKQDPVAASGTEQPERVTSMVQRIVRSSAIADTVKAWHQDQCQTCGIHIEVPGGFYSEGAHIQALGRPHNGPDRTDNMLCLCPNCHVMLDAGAIVLSDDLIVSKNGQLVGPLRTHPKHKVNIECVRRHRERWRQLEHHHHHH	not soluble
MGSDKIHHHHHHMYANASSENGAVNVSDDGPPLRIIHCFRSPVGGVFRHVRDLIEEHVRQGHKVGIVCDSSTGGAHEERLFAQITPMLELGLTRLPIRRSISPGDLLALWKSYKHIKSLRPDILHGHSAKGGALARLIGSLLRANRYRVARLYSPHGGSLHYARNSLKGQLFLRLERFQEHFTDALCFVCNFEQETYETKVGKPRTRTAMIYNGVQESEFETVPPRDGAARFLYIGMLRDLKGPDVFIRAFAKMERSIGQPMSGVIVGDGPDRDKYAAMIATAGLSRRISMHAAMPARQAFELATTVVVPSRAEAMPYIVLEALAAGKTVIASHVGGIPEVLGEDSEALVPAGDADALARTMVKDAADADWAQRVMPHPDSFKAKFSTPVMADEMMKLYRDLLTT	not soluble
MGSDKIHHHHHHMNNTPANRLQPKHFTLIKAIGDLGQLSLAAGQVSMTQPAASRMLAEIERIVGAAVFLRTPKGMEATEVGAALVRRSEILLQEMREAMREVDAIKRGASGTVSVGAVTGGALGYIVPAISTLKAEARTADIYVDVAPSGTLISNLVSGQFDFVLGRIPVGVDARQFHIRHARTEEVDLIVHQSHPLANSTDLRMTDLLHFPWVMQGPGAPVRQAVENAFIDAGTTLPVDVVNTTSLLVMIAMIAASNAITPLSREVSDLLCRQTTGAGLCRLKIRRPIIVLPYHLISMKNRHMSTLAARLQDLVLQEFITR	not soluble
MRYHIALVGRRNSGKSSLLNMLAGQQISIVSDIKGTTTDAVAKAYELQPLGPVTFYDTAGIDDEGTLGAMRVSATRRVLFRSDMALLVVDEQGLCPSDMALIDEIRQLQMPILMVFNKADICTPKAEDIAFCQNQSLPFIVVSAATGLAGKQLKQLMVELAPAEYKQEPLLAGDLYQAGDVILCVVPIDMAAPKGRLILPQVQILREALDRSAIAMVVKETELAQALSVVTPKLVISDAQAIKQVAAIVPDAVPLTTFSTLFARFKGDLAALATGADALDTLQDGDKVLISEACSHNVQEDDIGRVKLPRWINSYTGKQLEFVVTSGHDFPNDLEQYALVIHCGACMFNRNEMLRRIRECQRRQVPITNYGVAISKLQGVLPRVLTPFNRNPQQLEHHHHHH	soluble
MIKSALLVLEDGTQFHGRAIGATGSAVGEVVFNTSMTGYQEILTDPSYSRQIVTLTYPHIGNVGTNDADEESSQVHAQGLVIRDLPLIASNFRNTEDLSSYLKRHNIVAIADIDTRKLTRLLREKGAQNGCIIAGDNPDAALALEKARAFPGLNGMDLAKEVTTAEAYSWTQGSWTLTGGLPEAKKEDELPFHVVAYDFGAKRNILRMLVDRGCRLTIVPAQTSAEDVLKMNPDGIFLSNGPGDPAPDDYAITAIQKFLETDIPVFGICLGHQLLALASGAKTVKMKFGHHGGNHPVKDVEKNVVMITAQNHGFAVDEATLPANLRVTHKSLFDGTLQGIHRTDKPAFSFQGHPEASPGPHDAAPLFDHFIELIEQYRKTAK	soluble
MSLDVTAKYELIGLMAYPIRHSLSPEMQNKALEKAGLPFTYMAFEVDNDSFPGAIEGLKALKMRGTGVSMPNKQLACEYVDELTPAAKLVGAINTIVNDDGYLRGYNTDGTGHIRAIKESGFDIKGKTMVLLGAGGASTAIGAQGAIEGLKEIKLFNRRDEFFDKALAFAQRVNENTDCVVTVTDLADQQAFAEALASADILTNGTKVGMKPLENESLVNDISLLHPGLLVTECVYNPHMTKLLQQAQQAGCKTIDGYGMLLWQGAEQFTLWTGKDFPLEYVKQVMGFGAEGGSHHHHHH	soluble
MSLKKGYELLIFDWDGTLADSIGRIVEAMNVAAERAGEAQSSDAAVKGIIGLALDEAIHTLYPHLAPAEVASFRQHYADVYVALDQQPSPLFDGVVESLDAFRAEGYRLAVATGKARRGLDRVLKANGWERFFDITRAADETRGKPHPLMLEEILGHCGVEPSRALMVGDSAFDLQMASNAGMHSVAVGYGAMSLQALAEFGPQVCIDHFSQLREWLGGSAIPLPREGHHHHHH	soluble
MKLKHLDKLLAHCHRRRYTAKSTIIYAGDRCETLFFIIKGSVTILIEDDDGREMIIGYLNSGDFFGELGLFEKEGSEQERSAWVRAKVECEVAEISYAKFRELSQQDSEILYTLGSQMADRLRKTTRKVGDLAFLDVTGRVARTLLDLCQQPDAMTHPDGMQIKITRQEIGRIVGCSREMVGRVLKSLEEQGLVHVKGKTMVVFGTR	soluble
MRLCSVALLLFTVAYVKSAIDINVPSTLYIKEGDTGTIGLPVSANYRREVHNPKGTMDEQLYRVCNGKNKTTCGFWEDVKTKKKVKSGVTTYNKNKKALVIKKMLVSDFGNYMTGNKKKSRYVQQLVSLGK	not soluble
MFDDQDEIHPLLAGAPQTTEFRKLRKRIVREVREAIETYGMVERGARWLVCLSGGKDSYTLLAVLHELKWRGLLPVDLLACNLDQGQPGFPATVLPEFLSRMGVPHRIEYQDTYSIVMDKIPQGRTYCALCSRLRRGNLYRIAREEGCSAVVLGHHRDDILETFFMNLFHGGRLATMPPKLVNEDGDLFVYRPLAFVAEADCEKFARDMAYPIIPCDLCGSQEGLQRQQVKQILDGWEARSPGRRQVMFRALMNARPSHLLDPGLFDFLGLATAPRASEERQDEPPHLRGEA	not soluble
ASMTGGQQMGRGSASLPACPEESPLLVGPMLIEFNMPVDLELVAKQNPNVKMGGRYAPRDCVSPHKVAIIIPFRNRQEHLKYWLYYLHPVLQRQQLDYGIYVINQAGDTIFNRAKLLNVGFQEALKDYDYTCFVFSDVDLIPMNDHNAYRCFSQPRHISVAMDKFGFSLPYVQYFGGVSALSKQQFLTINGFPNNYWGWGGEDDDIFNRLVFRGMSISRPNAVVGTTRHIRHSRDKKNEPNPQRFDRIAHTKETMLSDGLNSLTYQVLDVQRYPLYTQITVDIGTPS	soluble
MSQAFTESVKTSLGPNATPRAKKLIASLVQHVHDFARENHLTTEDWLWGVDFINRIGQMSDSRRNEGILVCDIIGLETLVDALTNESEQSNHTSSAILGPFYLPDSPVYPNGGSIVQKAIPTDVKCFVRGKVTDTEGKPLGGAQLEVWQCNSAGFYSQQADHDGPEFNLRGTFITDDEGNYSFECLRPTSYPIPYDGPAGDLLKIMDRHPNRPSHIHWRVSHPGYHTLITQIYDAECPYTNNDSVYAVKDDIIVHFEKVDNKDKDLVGKVEYKLDYDISLATESSIQEARAAAKARQDAEIKL	soluble
MIFEMMGEKFDKNAPIAMQSDVFPRFIINCRDGRTIFKENDTLEFELIIFDNLTELFIQYIYVFETIGQSGLGPEKARYELLSVSDGKGNIIYKNTLLTGNAPVSDIREYISSRLDYCLNNRKNISRMTLLSSVMLNSDCKNGNKKVFFFSAEAFSYSIRERLSRLNVLEKEDEEKLNELLSDKRIINGINMKLTKIDYYIQNEQKTVTFPRFKGYIVFDIERINSYLDYFFACEKLCIGQNILLGFGRYVMG	not soluble
